In PMC13507320, “Synergistic effect of PIP2 and PIP3 on membrane-induced phase separation of integrin complexes” (Biophysical Journal, 2025):

Legend:
[1] = biological target: T1, Atto643-labeled his6-β1 integrin cytoplasmic tail peptide (UniProt P05556 752-798, Atto643 label (position not given)); assay: FRAP of the tethered partner on supported lipid bilayers (slowdown of diffusion); his6-β1 tails tethered to DGS-NTA-Ni on 5% PIP2 supported lipid bilayer; 1 μM kindlin or 1 μM talin, 30-min incubation; HEPES buffer pH 7.4, 150 mM KCl, 2.5 μM ZnCl2; t1/2_fast against β1 tails alone; settings: both partners purified
T1 construct: integrin β1 cytoplasmic tail; Tethered by its his6 tag to DGS-NTA-Ni lipids of the supported lipid bilayer; also called β1 tails; his6-tagged integrin β1 tails; source: synthetic peptide (synthesized and purified by the MPIB Core Facility)
T1 peptide (looked up): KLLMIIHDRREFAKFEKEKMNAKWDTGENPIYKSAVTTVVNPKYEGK

[2] = biological target: T1, Atto643-labeled his6-β1 integrin …; assay: FRAP of the tethered partner on supported lipid bilayers (slowdown of diffusion); his6-β1 tails tethered to DGS-NTA-Ni on 5% PIP3 supported lipid bilayer; 1 μM kindlin or 1 μM talin, 30-min incubation; HEPES buffer pH 7.4, 150 mM KCl, 2.5 μM ZnCl2; t1/2_fast against β1 tails alone; settings: both partners purified

B1: Kindlin-2 (natural protein, UniProt Q96AC1 1-680, looked up)
chain: MALDGIRMPDGCYADGTWELSVHVTDLNRDVTLRVTGEVHIGGVMLKLVEKLDVKKDWSDHALWWEKKRTWLLKTHWTLDKYGIQADAKLQFTPQHKLLRLQLPNMKYVKVKVNFSDRVFKAVSDICKTFNIRHPEELSLLKKPRDPTKKKKKKLDDQSEDEALELEGPLITPGSGSIYSSPGLYSKTMTPTYDAHDGSPLSPTSAWFGDSALSEGNPGILAVSQPITSPEILAKMFKPQALLDKAKINQGWLDSSRSLMEQDVKENEALLLRFKYYSFFDLNPKYDAIRINQLYEQAKWAILLEEIECTEEEMMMFAALQYHINKLSIMTSENHLNNSDKEVDEVDAALSDLEITLEGGKTSTILGDITSIPELADYIKVFKPKKLTLKGYKQYWCTFKDTSISCYKSKEESSGTPAHQMNLRGCEVTPDVNISGQKFNIKLLIPVAEGMNEIWLRCDNEKQYAHWMAACRLASKGKTMADSSYNLEVQNILSFLKMQHLNPDPQLIPEQITTDITPECLVSPRYLKKYKNKQITARILEAHQNVAQMSLIEAKMRFIQAWQSLPEFGITHFIARFQGGKKEELIGIAYNRLIRMDASTGDAIKTWRFSNMKQWNVNWEIKMVTVEFADEVRLSFICTEVDCKVVHEFIGGYIFLSTRAKDQNESLDEEMFYKLTSGWV
notes: Kindlin-2; the species may be mouse there; source: E. coli (DE3) Rosetta 2, purified (Ni-NTA IMAC, SenP2 digest, size-exclusion chromatography); not shown: His-SUMO, N-terminal, cleaved
How did the “fold slowdown of β1 tail diffusion against β1 tails alone” value [1] turn out when B1 was run?
The value was 2.6 times.

And the “fold slowdown of β1 tail diffusion against β1 tails alone” value [2]?
Its value is 3.3 times.
